The results in this text go back to publication PMC4357719, “Roles of Rad51 paralogs for promoting homologous recombination in Leishmania infantum”.

In data set [1] the target is T1, LiRad51-3 (in 3-4-6 complex);LiRad51-4 (in 3-4-6 complex);LiRad51-6 (in 3-4-6 complex) (Leishmania infantum;Leishmania …, UniProt E9AHR7;A4HUT5;A4I499 1-687;1-518;1-649, ||). Kind of data set: competition EMSA; 0-40 nM complex; mixture; 25 mM MOPS pH 7.0, 0.2% Tween-20, 1 mM CaCl2, 2 mM DTT; 25 nM 32P-DNA; 37 C 10 min, then 0.2% glutaraldehyde 15 min; 8% TBE acrylamide gel. The conditions noted are these: protein: recombinant;recombinant;recombinant; copies: 1;1;1; label: 32P on strand 1; fork 1:2. Background: Mobility shift assays separate free from complexed probe on a gel.

Data set [2] addresses T1, LiRad51-3 (in 3-4-6 complex);LiRad51-4 …. The experiment in a line: competition EMSA; 0-40 nM complex; preferred substrate in mixture; 25 mM MOPS pH 7.0, 0.2% Tween-20, 1 mM CaCl2, 2 mM DTT; 25 nM 32P-DNA; 37 C 10 min, then 0.2% glutaraldehyde 15 min; 8% TBE acrylamide gel. The conditions noted are these: protein: recombinant;recombinant;recombinant; copies: 1;1;1; label: 32P on strand 3 (JYM1745); D-loop: 1:2 with unpaired bubble, 3 paired to 2 in the bubble.

B1: splayed arm (JYM925/JYM926) (structured_DNA)
DNA 1: GGGTGAACCTGCAGGTGGGCAAAGATGTCCTAGCAATGTAATCGTCAAGCTTTATGCCGT
DNA 2: ACGCTGCCGAATTCTACCAGTGCCAGCGACGGACATCTTTGCCCACCTGCAGGTTCACCC
On to B1, for which, in data set [1], the binding result is recorded as “binds”.

B2: D-loop (JYM1395/JYM1396/JYM1745) (structured_DNA)
DNA 1: GCCAGGGACGGGGTGAACCTGCAGGTGGGCGGCTGCTCATCGTAGGTTAGTATCGACCTATTGGTAGAATTCGGCAGCGTCATGCGACGGC
DNA 2: GCCGTCGCATGACGCTGCCGAATTCTACCACGCTACTAGGGTGCCTTGCTAGGACATCTTTGCCCACCTGCAGGTTCACCCCGTCCCTGGC
DNA 3: AAGATGTCCTAGCAAGGCACCCTAGTAGC
B2: in data set [2], the binding result is “binds”.
